In publication PMC6503952, “Nuclear actin interactome analysis links actin to KAT14 histone acetyl transferase and mRNA splicing” (Journal of Cell Science, 2019):

Biological target: Rabbit skeletal muscle actin (rabbit, UniProt P68135 1-377)
Assay: pull-down; purified His–KAT14 or His–GST (from a lysate) held on Ni-NTA agarose beads, washed with up to 500 mM NaCl, then incubated with a 4-fold amount of rabbit skeletal muscle actin in G-buffer (5 mM Tris-HCl pH 7.5, 0.2 mM ATP, 0.2 mM CaCl2, 0.5 mM DTT) for 3 h at +4°C; western blot
Conditions: both partners purified

B1: Recombinant human His-KAT14 (enzyme)
chain: MDSSIHLSSLISRHDDEATRTSTSEGLEEGEVEGETLLIVESEDQASVDLSHDQSGDSLNSDEGDVSWMEEQLSYFCDKCQKWIPASQLREQLSYLKGDNFFRFTCSDCSADGKEQYERLKLTWQQVVMLAMYNLSLEGSGRQGYFRWKEDICAFIEKHWTFLLGNRKKTSTWWSTVAGCLSVGSPMYFRSGAQEFGEPGWWKLVHNKPPTMKPEGEKLSASTLKIKAASKPTLDPIITVEGLRKRASRNPVESAMELKEKRSRTQEAKDIRRAQKEAAGFLDRSTSSTPVKFISRGRRPDVILEKGEVIDFSSLSSSDRTPLTSPSPSPSLDFSAPGTPASHSATPSLLSEADLIPDVMPPQALFHDDDEMEGDGVIDPGMEYVPPPAGSVASGPVVGVRKKVRGPEQIKQEVESEEEKPDRMDIDSEDTDSNTSLQTRAREKRKPQLEKDTKPKEPRYTPVSIYEEKLLLKRLEACPGAVAMTPEARRLKRKLIVRQAKRDRGLPLFDLDQVVNAALLLVDGIYGAKEGGISRLPAGQATYRTTCQDFRILDRYQTSLPSRKGFRHQTTKFLYRLVGSEDMAVDQSIVSPYTSRILKPYIRRDYETKPPKLQLLSQIRSHLHRSDPHWTPEPDAPLDYCYVRPNHIPTINSMCQEFFWPGIDLSECLQYPDFSVVVLYKKVIIAFGFMVPDVKYNEAYISFLFVHPEWRRAGIATFMIYHLIQTCMGKDVTLHVSASNPAMLLYQKFGFKTEEYVLDFYDKYYPLESTECKHAFFLRLRR
notes: KAT14, human; also called His-tagged KAT14; source: Sf9 (MultiBac baculovirus), purified (Ni-NTA, Superdex 200)
B1: binds.
